{"source": "patent US20100111986A1", "about": "(Memorial Sloan Kettering, published 2010)", "binders": {"B1": {"name": "WT-1 A1 (ANALOGUE) (peptide)", "peptide": "YMFPNAPYL"}, "B2": {"name": "WT-1 A (native) (peptide)", "peptide": "RMFPNAPYL"}, "B3": {"name": "WT-1 B1 (ANALOGUE) (peptide)", "peptide": "YLGEQQYSV"}, "B4": {"name": "WT-1 B (native) (peptide)", "peptide": "SLGEQQYSV"}, "B5": {"name": "WT-1 C1 (ANALOGUE) (peptide)", "peptide": "YLLPAVPSL"}, "B6": {"name": "WT-1 C (native) (peptide)", "peptide": "ALLPAVPSL"}, "B7": {"name": "WT-1 D1 (ANALOGUE) (peptide)", "peptide": "YLGATLKGV"}, "B8": {"name": "WT-1 D (native) (peptide)", "peptide": "NLGATLKGV"}, "B9": {"name": "A3 WT-1 A (native) (peptide)", "peptide": "NMHQRNMTK"}, "B10": {"name": "A3 WT-1 A1 (ANALOGUE) (peptide)", "peptide": "NMYQRNMTK"}, "B11": {"name": "A3 WT-1 A3 (ANALOGUE) (peptide)", "peptide": "NMYQRVMTK"}, "B12": {"name": "A3WT-1 A2 (ANALOGUE) (peptide)", "peptide": "NMHQRVMTK"}, "B13": {"name": "A3 WT-1 B (native) (peptide)", "peptide": "QMNLGATLK"}, "B14": {"name": "A3WT-1 B1 (ANALOGUE) (peptide)", "peptide": "QMYLGATLK"}, "B15": {"name": "A3WT-1 B2 (ANALOGUE) (peptide)", "peptide": "QMNLGVTLK"}, "B16": {"name": "A3WT-1 B3 (ANALOGUE) (peptide)", "peptide": "QMYLGVTLK"}, "B17": {"name": "A3WT-1 C (native) (peptide)", "peptide": "FMCAYPGCNK"}, "B18": {"name": "A3 WT-1 C2 (ANALOGUE) (peptide)", "peptide": "FMCAYPFCNK"}, "B19": {"name": "A3 WT-1 C3 (ANALOGUE) (peptide)", "peptide": "FMYAYPFCNK"}, "B20": {"name": "A3WT-1 C1 (ANALOGUE) (peptide)", "peptide": "FMYAYPGCNK"}, "B21": {"name": "A3WT-1 D (native) (peptide)", "peptide": "KLSHLQMHSR"}, "B22": {"name": "A3 WT-1 D2 (ANALOGUE) (peptide)", "peptide": "KLSHLQMHSK"}, "B23": {"name": "A3 WT-1 D3 (ANALOGUE) (peptide)", "peptide": "KLYHLQMHSK"}, "B24": {"name": "A3WT-1 D1 (ANALOGUE) (peptide)", "peptide": "KLYHLQMHSR"}}}
{"target": "T1, HLA-A0201 (human)", "T1 construct": "MHC class I molecule on T2 cells; also called HLA-A2.1; HLA 0201", "assay": "T2 cell HLA stabilization assay, flow cytometry", "protocol": "T2 cells (TAP″, HLA-A0201⁺) were incubated overnight at 27° C. at a concentration of 1×10⁶ cells/ml in FCS-free RPMI medium supplemented with 5 μg/ml human β₂m (Sigma, St Louis, Mo.) in the absence (negative control) or presence of either a positive reference tyrosinase peptide or test peptides at various final concentrations (50, 10, 1, and 0.1 micrograms (μg)/ml). Following a 4-hour incubation with 5 μg/ml brefeldin A (Sigma), T2 cells were labeled for 30 minutes at 4° C. with a saturating concentration of anti-HLA-A2.1 (BB7.2) mAb, then washed twice. Cells were then incubated for 30 minutes, 4° C. with a saturating concentration of FITC-conjugated goat IgG F(ab′)2 anti-mouse Ig (Caltag, San Francisco, Calif.), washed twice, fixed in PBS/1% paraformaldehyde and analyzed using a FACS Calibur® cytofluorometer (Becton Dickinson, Immunocytometry Systems, San Jose, Calif.).\nThe mean intensity of fluorescence (MIF) observed for each peptide concentration (after dividing by the MIF in the absence of peptide) was used as an indication of peptide binding and expressed as a “fluorescence index.” Stabilization assays were performed similarly. Following initial evaluation of peptide binding at time 0, cells were washed in RPMI complete medium to remove free peptides and incubated in the continuous presence of 0.5 μg/ml brefeldin-A for 2, 4, 6 or 8 hours."}
{"binder": "B1", "binding result": "binds"}
{"binder": "B2", "binding result": "binds"}
{"binder": "B3", "binding result": "binds"}
{"binder": "B4", "binding result": "binds"}
{"binder": "B5", "binding result": "binds"}
{"binder": "B6", "binding result": "binds"}
{"binder": "B7", "binding result": "binds"}
{"binder": "B8", "binding result": "binds"}
{"target": "T2, HLA-A0301 (human)", "T2 construct": "MHC class I molecule on Raji HLA-A0301 cells", "assay": "stabilization assay on Raji HLA-A0301 cells"}
{"binder": "B9", "binding result": "binds"}
{"binder": "B10", "binding result": "binds"}
{"binder": "B11", "binding result": "binds"}
{"binder": "B12", "binding result": "binds"}
{"binder": "B13", "binding result": "binds"}
{"binder": "B14", "binding result": "binds"}
{"binder": "B15", "binding result": "binds"}
{"binder": "B16", "binding result": "binds"}
{"binder": "B17", "binding result": "binds"}
{"binder": "B18", "binding result": "binds"}
{"binder": "B19", "binding result": "binds"}
{"binder": "B20", "binding result": "binds"}
{"binder": "B21", "binding result": "binds"}
{"binder": "B22", "binding result": "binds"}
{"binder": "B23", "binding result": "binds"}
{"binder": "B24", "binding result": "binds"}
